Tested on: CC(=O)O[C@H]1C(=O)[C@@]2(C)[C@H]([C@H](OC(=O)c3ccccc3)[C@]3(O)C[C@H](OC(=O)[C@H](O)[C@@H](NC(=O)c4ccccc4)c4ccccc4)C(C)=C1C3(C)C)[C@]1(OC(C)=O)CO[C@@H]1C[C@@H]2O
Test: TP_TRANSPORTER: transepithelial transport (basal to apical) in Caco-2 cells
Format: functional, cell-based

“ATP-dependent translocase ABCB1 (Homo sapiens)” was tested, and the Km was 16.5 µM.

Source: ChEMBL document CHEMBL2074420, “Taxol transport by human intestinal epithelial Caco-2 cells” (Drug Metab Dispos, 1998)
